First the molecules themselves.
B1: HIV-1 Vpr, wild type [HIV-1] / GST-fused di-W peptide WWSFKSV (GST-B4) (parent complex)
chain 1: MEQAPEDQGPQREPHNEWTLELLEELKNEAVRHFPRIWLHGLGQHIYETYGDTWAGVEAIIRILQQLLFIHFRIGCRHSRIGVTRQRRARNGASRS
chain 2: WWSFKSV

The variants in the test derive from B1. The test can be described thus: GST pull-down, autoradiography scanning; parent: 100; read off a plot.
Consider chain 1 A30F, for which the percent of parent was ~6%.
Consider chain 1 F34I, for which the percent of parent is ~80%.
Take chain 1 R80A: the percent of parent is ~88%.
The value for chain 1 E21K was ~7%.
Regarding chain 1 E25K, the percent of parent is ~86%.
Turning to chain 1 I63K, the percent of parent is ~80%.
In the case of chain 1 R87A, chain 1 R88A, the percent of parent is ~71%.
In the case of chain 1 R62P, the percent of parent was ~4%.
The value for chain 1 L23F was ~10%.

(Values after article PMC516023 (2004).)
